Experimental data from the supplement of paper PMC11246515.
± gives the standard deviation of the averaged measurements.

Test: total protein half-life in vivo (active degradation + dilution); higher = more stable protein
[1] = E. coli NCM3722 delta-clpP delta-lon delta-hslV, growth: N-lim chemostat, doubling time 6 h
[2] = E. coli NCM3722 delta-clpP, growth: N-lim chemostat, doubling time 6 h
[3] = E. coli NCM3722 delta-hslV, growth: N-lim chemostat, doubling time 6 h
[4] = E. coli NCM3722 delta-lon, growth: N-lim chemostat, doubling time 6 h
[5] = E. coli NCM3722 delta-smpB, growth: N-lim chemostat, doubling time 6 h
[6] = wild type E. coli NCM3722, growth: C-lim chemostat, doubling time 6 h
[7] = wild type E. coli NCM3722, growth: C-lim chemostat, doubling time 12 h
[8] = wild type E. coli NCM3722, growth: N-lim chemostat, doubling time 6 h
[9] = wild type E. coli NCM3722, growth: N-lim chemostat, doubling time 12 h
[10] = wild type E. coli NCM3722, growth: P-lim chemostat, doubling time 6 h
[11] = wild type E. coli NCM3722, growth: P-lim chemostat, doubling time 12 h
[12] = wild type E. coli NCM3722, growth: C-lim chemostat, doubling time 3 h

| Sequence | total protein half-life in vivo [1] | total protein half-life in vivo [2] | total protein half-life in vivo [3] | total protein half-life in vivo [4] | total protein half-life in vivo [5] | total protein half-life in vivo [6] | total protein half-life in vivo [7] | total protein half-life in vivo [8] | total protein half-life in vivo [9] | total protein half-life in vivo [10] | total protein half-life in vivo [11] | total protein half-life in vivo [12] |
| --- | --- | --- | --- | --- | --- | --- | --- | --- | --- | --- | --- | --- |
| MKIRSQVGMVLNLDKCIGCHTCSVTCKNVWTSREGVEYAWFNNVETKPGQGFPTDWENQEKYKGGWIRKINGKLQPRMGNRAMLLGKIFANPHLPGIDDYYEPFDFDYQNLHTAPEGSKSQPIARPRSLITGERMAKIEKGPNWEDDLGGEFDKLAKDKNFDNIQKAMYSQFENTFMMYLPRLCEHCLNPACVATCPSGAIYKREEDGIVLIDQDKCRGWRMCITGCPYKKIYFNWKSGKSEKCIFCYPRIEAGQPTVCSETCVGRIRYLGVLLYDADAIERAASTENEKDLYQRQLDVFLDPNDPKVIEQAIKDGIPLSVIEAAQQSPVYKMAMEWKLALPLHPEYRTLPMVWYVPPLSPIQSAADAGELGSNGILPDVESLRIPVQYLANLLTAGDTKPVLRALKRMLAMRHYKRAETVDGKVDTRALEEVGLTEAQAQEMYRYLAIANYEDRFVVPSSHRELAREAFPEKNGCGFTFGDGCHGSDTKFNLFNSRRIDAIDVTSKTEPHP | 5.82 ± 0.15 h | 5.37 ± 0.84 h | 5.9 ± 0.44 h | 5.52 ± 0.8 h | 5.81 ± 0.086 h | 5.809 ± 0.058 h | 12.8 h | 5.29 h | 11.3 ± 0.39 h | 6 ± 0.39 h | 10.8 ± 2.4 h | – |
| MKISDGNWLIQPGLNLIHPLQVFEVEQQDNEMVVYAAPRDVRERTWQLDTPLFTLRFFSPQEGIVGVRIEHFQGALNNGPHYPLNILQDVKVTIENTERYAEFKSGNLSARVSKGEFWSLDFLRNGERITGSQVKNNGYVQDTNNQRNYMFERLDLGVGETVYGLGERFTALVRNGQTVETWNRDGGTSTEQAYKNIPFYMTNRGYGVLVNHPQCVSFEVGSEKVSKVQFSVESEYLEYFVIDGPTPKAVLDRYTRFTGRPALPPAWSFGLWLTTSFTTNYDEATVNSFIDGMAERNLPLHVFHFDCFWMKAFQWCDFEWDPLTFPDPEGMIRRLKAKGLKICVWINPYIGQKSPVFKELQEKGYLLKRPDGSLWQWDKWQPGLAIYDFTNPDACKWYADKLKGLVAMGVDCFKTDFGERIPTDVQWFDGSDPQKMHNHYAYIYNELVWNVLKDTVGEEEAVLFARSASVGAQKFPVHWGGDCYANYESMAESLRGGLSIGLSGFGFWSHDIGGFENTAPAHVYKRWCAFGLLSSHSRLHGSKSYRVPWAYDDESCDVVRFFTQLKCRMMPYLYREAARANARGTPMMRAMMMEFPDDPACDYLDRQYMLGDNVMVAPVFTEAGDVQFYLPEGRWTHLWHNDELDGSRWHKQQHGFLSLPVYVRDNTLLALGNNDQRPDYVWHEGTAFHLFNLQDGHEAVCEVPAADGSVIFTLKAARTGNTITVTGAGEAKNWTLCLRNVVKVNGLQDGSQAESEQGLVVKPQGNALTITL | 5.8 h | 5.9 ± 0.59 h | 5.652 ± 0.053 h | – | 5.11 ± 0.41 h | 6.93 ± 0.64 h | 13 ± 0.71 h | 6.27 h | 12.7 ± 0.22 h | – | 11.5 ± 2.9 h | 3.394 ± 0.019 h |
| MKISPSLMCMDLLKFKEQIEFIDSHADYFHIDIMDGHFVPNLTLSPFFVSQVKKLATKPLDCHLMVTRPQDYIAQLARAGADFITLHPETINGQAFRLIDEIRRHDMKVGLILNPETPVEAMKYYIHKADKITVMTVDPGFAGQPFIPEMLDKLAELKAWREREGLEYEIEVDGSCNQATYEKLMAAGADVFIVGTSGLFNHAENIDEAWRIMTAQILAAKSEVQPHAKTA | – | – | – | – | – | – | – | – | – | – | – | 0.597 h |
| MKITLLVTLLFGLVFLTTVGAAERTLTPQQQRMTSCNQQATAQALKGDARKTYMSDCLKNSKSAPGEKSLTPQQQKMRECNNQATQQSLKGDDRNKFMSACLKKAA [P0AFM4] | 6.55 h | 5.82 ± 1.1 h | – | – | – | – | 6.86 ± 1.4 h | – | – | 5.5 ± 1.8 h | 12.8 ± 2.9 h | – |
| MKITLSKRIGLLAILLPCALALSTTVHAETNKLVIESGDSAQSRQHAAMEKEQWNDTRNLRQKVNKRTEKEWDKADAAFDNRDKCEQSANINAYWEPNTLRCLDRRTGRVITP | 6.01 ± 0.36 h | – | 4.407 ± 0.012 h | 5.55 ± 1.8 h | 4.06 ± 0.71 h | 5.07 ± 0.96 h | 7.11 ± 3.5 h | 4.93 ± 0.28 h | 11 ± 1.8 h | 5.78 ± 0.18 h | 12.4 ± 0.79 h | – |
| MKIVKAEVFVTCPGRNFVTLKITTEDGITGLGDATLNGRELSVASYLQDHLCPQLIGRDAHRIEDIWQFFYKGAYWRRGPVTMSAISAVDMALWDIKAKAANMPLYQLLGGASREGVMVYCHTTGHSIDEALDDYARHQELGFKAIRVQCGIPGMKTTYGMSKGKGLAYEPATKGQWPEEQLWSTEKYLDFMPKLFDAVRNKFGFNEHLLHDMHHRLTPIEAARFGKSIEDYRMFWMEDPTPAENQECFRLIRQHTVTPIAVGEVFNSIWDCKQLIEEQLIDYIRTTLTHAGGITGMRRIADFASLYQVRTGSHGPSDLSPVCMAAALHFDLWVPNFGVQEYMGYSEQMLEVFPHNWTFDNGYMHPGDKPGLGIEFDEKLAAKYPYEPAYLPVARLEDGTLWNW | 5.64 ± 0.3 h | – | – | – | – | 6.03 ± 0.18 h | 10.5 ± 1.8 h | – | – | 7.33 h | > 16 h | 3.61 ± 0.2 h |
| MKIYLVGGAVRDALLGLPVKDRDWVVVGSTPQEMLDAGYQQVGRDFPVFLHPQTHEEYALARTERKSGSGYTGFTCYAAPDVTLEDDLKRRDLTINALAQDDNGEIIDPYNGLGDLQNRLLRHVSPAFGEDPLRVLRVARFAARYAHLGFRIADETLALMREMTHAGELEHLTPERVWKETESALTTRNPQVFFQVLRDCGALRVLFPEIDALFGVPAPAKWHPEIDTGIHTLMTLSMAAMLSPQVDVRFATLCHDLGKGLTPPELWPRHHGHGPAGVKLVEQLCQRLRVPNEIRDLARLVAEFHDLIHTFPMLNPKTIVKLFDSIDAWRKPQRVEQLALTSEADVRGRTGFESADYPQGRWLREAWEVAQSVPTKAVVEAGFKGVEIREELTRRRIAAVASWKEQRCPKPE | 4.23 ± 0.88 h | 3.75 ± 0.11 h | 3.29 ± 0.057 h | 3.79 ± 0.16 h | 3.37 ± 0.045 h | 5.06 ± 0.79 h | 8.37 ± 0.69 h | 3.48 ± 0.28 h | 5.55 ± 0.2 h | 5.114 ± 0.016 h | 9.86 ± 0.35 h | 2.96 ± 0.27 h |
| MKKFAAVIAVMALCSAPVMAAEQGGFSGPSATQSQAGGFQGPNGSVTTVESAKSLRDDTWVTLRGNIVERISDDLYVFKDASGTINVDIDHKRWNGVTVTPKDTVEIQGEVDKDWNSVEIDVKQIRKVNP [P0ADU5] | 3.85 ± 0.19 h | 5.07 ± 0.71 h | 5.86 ± 0.11 h | 6.2 ± 0.35 h | 5.91 ± 0.28 h | 5.83 ± 0.75 h | 6.74 ± 1.2 h | 6.22 ± 0.79 h | 11.8 ± 0.34 h | 4.72 ± 0.64 h | 7.98 ± 1.5 h | 2.89 ± 0.69 h |
| MKKIAAISLISIFIMSGCAVHNDETSIGKFGLAYKSNIQRKLDNQYYTEAEASLARGRISGAENIVKNDATHFCVTQGKKMQIVELKTEGVGLHGVARLTFKCGE | – | 5.75 ± 0.084 h | 6.67 ± 0.98 h | – | 6.04 ± 0.45 h | 5.62 ± 0.76 h | 11.3 ± 0.14 h | 6.8 ± 0.99 h | 13.1 ± 1.9 h | – | – | 3.03 ± 0.37 h |
